Experiment [1] deals with 人源TF, 细胞表面TF (human tissue factor on the surface of human tumour cells) (human, UniProt P13726 33-295). As to the kind of experiment: cell-based or functional assay.
Experiment [2] has as its target T1, 鼠源TF (mouse tissue factor on B16-F10 cells) (mouse, UniProt P20352 29-294).
T1 construct: whole, on cells
T1 sequence (looked up): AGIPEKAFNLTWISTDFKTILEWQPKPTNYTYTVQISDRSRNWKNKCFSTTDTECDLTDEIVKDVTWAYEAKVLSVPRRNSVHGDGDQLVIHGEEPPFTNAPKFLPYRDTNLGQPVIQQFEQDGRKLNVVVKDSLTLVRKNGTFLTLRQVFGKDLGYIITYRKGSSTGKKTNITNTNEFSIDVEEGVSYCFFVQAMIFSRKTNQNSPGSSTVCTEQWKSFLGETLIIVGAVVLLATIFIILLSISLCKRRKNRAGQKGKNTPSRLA
As to the kind of experiment: flow cytometry on B16-F10 cells.

B1: TF-mAb-SC1 (antibody, IgG2b, V domains shown)
VH: QVQLQQPGAELVRPGASVKLSCKASGYSFISYWMNWVKQRPGQGLEWIGMIYPADSETRLNQKFKDKATLTVDKSSSTAYMQLSSPTSEDSAVYYCAREDYGSSDYWGQGTTLTVSS
VL: EILLTQSPAIIAASPGEKVTITCSASSSVSYMNWYLQKPGSSPKIWIYGISNLASGVPARFSGSGSGTSFSFTINSMETEDVATYYCQQKSSFPWTFGGGTKLEIK
notes: Mouse monoclonal antibody from a hybridoma, purified from ascites
With B1, in experiment [1], the “抗FXa生成活性 IC50 (BxPC-3 cells)” value stood at 9 nM and the “抗FXa生成活性 IC50 (MDA-MB-231 cells)” value is 6.4 nM. Besides, the binding result in experiment [2] is reported as “no binding (tested: 10μg/mL)”.

The values above are taken from patent CN106467574A (UNIV FUDAN, dated 2017).
